{"source": "patent US20140011196", "assay_in_all_cases": "cleavage_in_vitro", "key": {"[1]": {"target": "T1, TaqI restriction endonuclease (Thermus aquaticus) (UniProt P14386)", "T1 sequence": "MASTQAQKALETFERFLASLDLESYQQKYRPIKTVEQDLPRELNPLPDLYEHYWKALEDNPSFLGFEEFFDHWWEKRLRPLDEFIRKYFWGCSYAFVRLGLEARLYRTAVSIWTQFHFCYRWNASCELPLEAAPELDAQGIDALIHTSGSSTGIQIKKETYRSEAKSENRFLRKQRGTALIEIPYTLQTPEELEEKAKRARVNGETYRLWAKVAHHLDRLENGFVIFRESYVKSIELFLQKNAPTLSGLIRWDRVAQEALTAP", "conditions": "65 C"}, "[2]": {"system": "T2, HpyF30I restriction endonuclease (Helicobacter pylori RFL30)", "T2 sequence": "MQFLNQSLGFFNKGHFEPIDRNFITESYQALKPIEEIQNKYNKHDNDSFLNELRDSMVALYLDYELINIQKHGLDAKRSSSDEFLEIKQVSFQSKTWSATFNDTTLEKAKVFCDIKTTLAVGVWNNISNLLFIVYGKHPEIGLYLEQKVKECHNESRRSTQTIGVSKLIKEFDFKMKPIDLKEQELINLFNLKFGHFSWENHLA"}, "[3]": {"system": "PaeR7I restriction endonuclease"}, "[4]": {"conditions": "about 50% 5mC at the TCGA site, partial, site about 50% methylated"}}, "data": [{"substance": "130 bp lambda PCR fragment C", "values": [{"measurement": "activity", "setting": "[1]; with Jurkat genomic DNA", "result": 0.7, "unit": "% undigested"}, {"measurement": "activity", "setting": "[2]; with Jurkat genomic DNA, SdaI buffer, 37 C", "result": 7, "unit": "% undigested"}]}, {"substance": "RASSFA1 promoter region", "values": [{"measurement": "activity", "setting": "[1]; about 50% 5mC at the TCGA site, qPCR", "result": 0.8, "unit": "% undigested"}, {"measurement": "activity", "setting": "[3]; [4]", "result": 50, "unit": "% undigested"}, {"measurement": "activity", "setting": "[2]; [4]", "result": 50, "unit": "% undigested"}]}, {"substance": "lambda DNA (dam-)", "values": [{"measurement": "activity", "setting": "[1]; TaqI buffer, qPCR", "result": 0.06, "unit": "% undigested"}, {"measurement": "activity", "setting": "[2]; SdaI buffer, 15 mM Mg acetate, 37 C, qPCR", "result": 0.6, "unit": "% undigested"}]}, {"substance": "130 bp lambda PCR fragment m5C", "values": [{"measurement": "activity", "setting": "[1]; 5mC in both strands, with Jurkat genomic DNA", "result": 0.7, "unit": "% undigested"}, {"measurement": "activity", "setting": "[2]; 5mC in both strands, with Jurkat genomic DNA, SdaI buffer, 37 C", "result": 100, "unit": "% undigested"}]}, {"substance": "lambda DNA (dam-) M.SssI methylated", "values": [{"measurement": "activity", "setting": "[1]; 5mC at CpG, both strands, TaqI buffer, qPCR", "result": 0.2, "unit": "% undigested"}, {"measurement": "activity", "setting": "[2]; 5mC at CpG, both strands, SdaI buffer, 37 C, qPCR", "result": 100, "unit": "% undigested"}]}, {"substance": "DAPK1 promoter region", "values": [{"measurement": "activity", "setting": "[1]; qPCR", "result": 0.7, "unit": "% undigested"}, {"measurement": "activity", "setting": "[3]; buffer 4, 37 C, qPCR", "result": 0.8, "unit": "% undigested"}, {"measurement": "activity", "setting": "[2]; SdaI buffer, 37 C, qPCR", "result": 2, "unit": "% undigested"}]}]}
